Measured values taken from patent US20110318339A1 (FABRUS, published 2011).
Positions count from the first letter of the chain named. Numbers in names are those of the source.

B1: Fab VH1-46_IGHD6-6*01_IGHJ1*01 S102A/S103P/S104F/H111F & L6_IGKJ1*01 S28N/S30D/S31H N53H (Fab, V domains shown)
VH: QVQLVQSGAEVKKPGASVKVSCKASGYTFTSYYMHWVRQAPGQGLEWMGIINPSGGSTSYAQKFQGRVTMTRDTSTSTVYMELSSLRSEDTAVYYCAREEYAPFSAEYFQFWGQGTLVTVSS
VL: EIVLTQSPATLSLSPGERATLSCRASQNVDHYLAWYQQKPGQAPRLLIYDASHRATGIPARFSGSGSGTDFTLTISSLEPEDFAVYYCQQRSNWPPWTFGQGTKVEIKR
notes: Fab made in E. coli: VH on CH1 with His6 and Flag tags (Plasmid A), VL on kappa CL (Plasmid C); also called H: APFF & L: NDH N53H
B2: Fab VH1-46_IGHD6-6*01_IGHJ1*01 S102A/S103P/S104F/H111F & L6_IGKJ1*01 (Fab, V domains shown)
VH: B1 VH
VL: not shown
notes: Fab made in E. coli: VH on CH1 with His6 and Flag tags (Plasmid A), VL on kappa CL (Plasmid C); also called H: APFF & L: wt
B3: Fab H:APFF VLTH & L:NDH LG (Fab, V domains shown)
VH: B1 VH with I51V, N52L, S54T, G56H
VL: B1 VL with S52L, H53N, A55G
notes: Fab, kappa light chain
B4: Fab H:APFF LTH & L:NDH LS (Fab, V domains shown)
VH: B1 VH with N52L, S54T, G56H
VL: B1 VL with S52L, H53N, A55S
notes: Fab, kappa light chain
B5: Fab H:APFF ELTH & L6_IGKJ1*01 (Fab, V domains shown)
VH: B1 VH with I51E, N52L, S54T, G56H
VL: not shown
notes: Fab, kappa light chain; also called H:APPF ELTH; H:APFF ELTH & L:wt
B6: Fab H:APFF VLTH & L6_IGKJ1*01 (Fab, V domains shown)
VH: B1 VH with I51V, N52L, S54T, G56H
VL: not shown
notes: Fab, kappa light chain; also called H:APPF VLTH; H:APFF VLTH & L:wt
B7: Fab H:APFF TLATH & L6_IGKJ1*01 (Fab, V domains shown)
VH: B1 VH with I51T, N52L, P53A, S54T, G56H
VL: not shown
notes: Fab, kappa light chain; also called H:APFF TLATH & L:wt
B8: Fab H:APFF LTH & L6_IGKJ1*01 (Fab, V domains shown)
VH: B1 VH with N52L, S54T, G56H
VL: not shown
notes: Fab, kappa light chain; also called H:APFF LTH & L:wt
B9: Fab H:APFF NLTH & L6_IGKJ1*01 (Fab, V domains shown)
VH: B1 VH with I51N, N52L, S54T, G56H
VL: not shown
notes: Fab, kappa light chain; also called H:APFF NLTH & L:wt
B10: Fab H:APFF TV & L6_IGKJ1*01 (Fab, V domains shown)
VH: B1 VH with I51T, N52V
VL: not shown
notes: Fab, kappa light chain; also called H:APFF TV & L:wt; APFF I51T/N52V

Each binder was assayed against T1, recombinant human DLL4 (Cat# 1506-D4/CF, R&D Systems) (human, UniProt Q9NR61 27-529) (assay: ELISA, DLL4 coated, Fab 25 nM).
T1 construct: Bought protein; also called hDLL4; rHuman DLL4
Experimental: (§1) The plate was blocked by adding 1% BSA in Tris-buffered Saline Tween (TBST) and incubating for 1 hour at room temperature followed by washing 2 times with 150 μl TBST. A Fab antibody was serially diluted in 1% BSA in PBS. A 50 μl aliquot of each serial dilution was added, in triplicate, to each well and the plate was incubated for 1 hour at room temperature followed by washing 2 times with TBST. 50 μl of either goat anti-human kappa HRP conjugated secondary antibody (Cat # A7164-1 mL, Sigma-Aldrich) or goat anti-human lambda HRP conjugated secondary antibody (Cat # L1645-1 ml, Sigma-Aldrich), diluted 1:1000 in 1% BSA in PBS, was added to each well and the plate was incubated for 30 minutes at room temperature followed by washing 3 times with 200 μl TBST. Finally, 50 μl TMB one-component reagent (Cat # TMBW-1000-01, BioFax) was added and allowed to develop for 2 minutes at room temperature. The reaction was immediately halted by the addition of 50 μl 0.5M H₂SO₄ and the absorbance at 450 nm was measured using an ELISA plate reader.

ELISA absorbance at 450 nm [A450]	Binder
0.238	B1

These binders were tested against T1, recombinant human DLL4 (Cat# …) (assay: ELISA, DLL4 coated, Fab 100 nM).

ELISA absorbance at 450 nm [A450]	Binder
0.072	B2

These binders were tested against T1, recombinant human DLL4 (Cat# …) (assay: ELISA, DLL4 coated, Fab 3.125 nM).
Experimental: as §1

ELISA absorbance at 450 nm [A450]	Binder
0.089	B1

What follows are binders tested against T1, recombinant human DLL4 (Cat# …) (assay: ELISA, DLL4 coated, Fab 6.25 nM).
Experimental: as §1

ELISA absorbance at 450 nm [A450]	Binder
0.109	B1

These binders were tested against T1, recombinant human DLL4 (Cat# …) (assay: ELISA, DLL4 coated, Fab 50 nM).
Experimental: as §1

ELISA absorbance at 450 nm [A450]	Binder
0.416	B1

Molecular target: T1, recombinant human DLL4 (Cat# …)
Assay: ELISA, DLL4 coated, Fab 100 nM
Remark: another data set of the same source
Experimental: as §1

ELISA absorbance at 450 nm [A450]	Binder
0.608	B1

What follows are binders tested against T2, Recombinant Human DLL4 (Cat# 1506-D4/CF, R&D Systems) (human, UniProt Q9NR61 27-529) (assay: ELISA, DLL4 coated).
T2 construct: Bought protein; also called rHuman DLL4; hDLL4

fold increased binding affinity against the antibody mutants with heavy chain H:APFF ALTH [fold]	Binder
~10	B3
~10	B4

The binders below were run against T1, recombinant human DLL4 (Cat# …) (assay: ELISA, DLL4 coated, Fab 12.5 nM).
Experimental: as §1

ELISA absorbance at 450 nm [A450]	Binder
0.167	B1

Molecular target: T1, recombinant human DLL4 (Cat# …)
Assay: ELISA, DLL4 coated, Fab 50 nM
Remark: another data set of the same source
Experimental: as §1

ELISA absorbance at 450 nm [A450]	Binder
0.06	B2

The binders below were run against T1, recombinant human DLL4 (Cat# …) (assay: ELISA, DLL4 coated, Fab 75 nM).

ELISA absorbance at 450 nm [A450]	Binder
0.072	B2

What follows are binders tested against T2, Recombinant Human DLL4 (Cat# …) (assay: ELISA, DLL4 coated, estimated from dose-dependent binding).
Experimental: as §1

Kd [nM]	Binder
1 to 10	B5
1 to 10	B6
> 100	B7
1 to 10	B8
1 to 10	B9
10 to 100	B10
